Experimental data reported in publication PMC8991601.

Legend:
[1] = system: N[C@@H](CCC(=O)O)C(=O)Nc1ccc([N+](=O)[O-])cc1; test: purified protein; settings: 10 mM Tris-HCl, pH 7.5, 50 °C
[2] = system: N[C@@H](CC(=O)O)C(=O)Nc1ccc([N+](=O)[O-])cc1; test: purified protein; settings: 10 mM Tris-HCl, pH 7.5, 50 °C

Substance	Km [1] [µM]	Km [2] [µM]
bDNPEP (recombinant bovine aspartyl aminopeptidase) (Bos taurus)	314	389
cDNPEP (recombinant chicken aspartyl aminopeptidase) (Gallus gallus)	137	767
